Experimental data: publication PMC10764958

Target: SARS2-NP SIM1A (poly-SUMOylated) (SARS-CoV-2) (UniProt P0DTC9)
Assay: MST
Details: MST: PBS with 0.05% Tween, room temperature

“CACUCGCUAUGUCGAUAACAACUUCUGUGGCCCUGAUGGCUACCCUCUUGAGUGCAUUAAAGA [Cy5-RNA (SARS-CoV-2 RNA)]” showed a Kd of 2.71 nM.
